# Measured values as given in patent publication US20240124553A1 (WASHINGTON UNIVERSITY, published 2024).
# Target: T1, Mayaro virus (MAYV) structural proteins on infected cells (Mayaro virus)
# T1 construct: whole, on cells
# Experiment: flow cytometry, surface staining of MAYV-infected Vero cells with serial dilutions, % binding to infected cells
binder,measurement,value
"Mxra8-Fc (extracellular domain of mouse Mxra8 fused to mouse IgG2b Fc) (Fc fusion, also called mMxra8-Fc; mouse Mxra8-Fc) SGPSGTAAASSSLVSESVVSLAAGTQAVLRCQSPRMVWTQDRLHDRQRVVHWDLSGGPGSQRRRLVDMYSAGEQRVYEPRDRDRLLLSPSAFHDGNFSLLIRAVDRGDEGVYTCNLHHHYCHLDESLAVRLEVTEDPLLSRAYWDGEKEVLVVAHGAPALMTCINRAHVWTDRHLEEAQQVVHWDRQLPGVSHDRADRLLDLYASGERRAYGPPFLRDRVSVNTNAFARGDFSLRIDELERADEGIYSCHLHHHYCGLHERRVFHLQVTEPAFEPPARASPGNGSGHSSAPSPDPTLTRGHSIINVIVPEDHTHPSGPISTINPCPPCKECHKCPAPNLEGGPSVFIFPPNIKDVLMISLTPKVTCVVVDVSEDDPDVQISWFVNNVEVHTAQTQTHREDYNSTIRVVSTLPIQHQDWMSGKEFKCKVNNKDLPSPIERTISKIKGLVRAPQVYILPPPAEQLSRKDVSLTCLVVGFNPGDISVEWTSNGHTEENYKDTAPVLDSDGSYFIYSKLNMKTSKWEKTDSFSCNVRHEGLKNYYLKKTISRSPGK",EC50 (read off the curve),~3 ng/mL
